This test addresses T1, Human PD-L1 full-length (human, UniProt Q9NZQ7 19-290).
T1 construct: also called PDL01021; CHOK1SV/huPDL1
Put plainly: flow cytometry, CHOK1SV/human PD-L1 cells.

T1 sequence (Q9NZQ7 19-290): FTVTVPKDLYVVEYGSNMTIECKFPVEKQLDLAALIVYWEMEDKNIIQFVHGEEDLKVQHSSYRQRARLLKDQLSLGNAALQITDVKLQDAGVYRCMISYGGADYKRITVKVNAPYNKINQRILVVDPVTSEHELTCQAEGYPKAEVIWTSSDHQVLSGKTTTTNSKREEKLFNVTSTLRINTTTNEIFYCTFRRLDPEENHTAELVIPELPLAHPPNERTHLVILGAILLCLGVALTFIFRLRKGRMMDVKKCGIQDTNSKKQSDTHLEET

B1: CD4001076 (bispecific antibody)
PDL_5F9 x Fc-Knob: EVQLVESGGGLVKPGGSLRLSCAASGFTFSDYGMAWVRQAPGKGLEWVAFITSLAYIIYYADSVKGRFTISRDNAKNSLYLQMNSLRAEDTAVYYCARNYGSSPYYFDYWGQGTLVTVSSGGGGSGGGGSGGGGSGGGGSDIQMTQSPSSLSASVGDRVTITCRASQDINKFLSWYQQKPGKAPKLLIHYTSSLQPGVPSRFSGSGSGTDFTLTISSLQPEDFATYYCLQYDNLYTFGQGTKLEIKEPKSSDKTHTCPPCPAPPAAAPSVFLFPPKPKDTLMISRTPEVTCVVVDVSHEDPEVKFNWYVDGVEVHNAKTKPREEQYNSTYRVVSVLTVLHQDWLNGKEYKCAVSNKALPAPIEKTISKAKGQPREPQVYTLPPSRDELTKNQVSLWCLVKGFYPSDIAVEWESNGQPENNYKTTPPVLDSDGSFFLYSKLTVDKSRWQQGNVFSCSVMHEALHNHYTQKSLSLSPG
PDL_5F9 x Fc-Hole x CD40_2H7: EVQLVESGGGLVKPGGSLRLSCAASGFTFSDYGMAWVRQAPGKGLEWVAFITSLAYIIYYADSVKGRFTISRDNAKNSLYLQMNSLRAEDTAVYYCARNYGSSPYYFDYWGQGTLVTVSSGGGGSGGGGSGGGGSGGGGSDIQMTQSPSSLSASVGDRVTITCRASQDINKFLSWYQQKPGKAPKLLIHYTSSLQPGVPSRFSGSGSGTDFTLTISSLQPEDFATYYCLQYDNLYTFGQGTKLEIKEPKSSDKTHTCPPCPAPPAAAPSVFLFPPKPKDTLMISRTPEVTCVVVDVSHEDPEVKFNWYVDGVEVHNAKTKPREEQYNSTYRVVSVLTVLHQDWLNGKEYKCAVSNKALPAPIEKTISKAKGQPREPQVYTLPPSRDELTKNQVSLSCAVKGFYPSDIAVEWESNGQPENNYKTTPPVLDSDGSFFLVSKLTVDKSRWQQGNVFSCSVMHEALHNRFTQKSLSLSPGGGGSPSDIVMTQSHKFMSTSVGDRVSITCKASQDVNTAVAWYQQKPGQSPKLLIYSASYRYTGVPDRFTGSGSGTDFTFTISSVQAEDLAVYYCQQHYSTPWTFGGGTKLEIKGGGGSGGGGSGGGGSGGGGSQVQLQQSGAELAKPGASVKMSCKASGYAFTTYWMHWVKQRPGQGLEWIGYINPTTGYTDYNQKFKDKATLTADKSSSTAYMQLSSLTSEDSAVYYCARWGLPPFAYWGQGTLVTVSA
In the case of B1, the binding result is reported as “binds”.

B2: CD4001078 (bispecific antibody)
PDL_5F9 x Fc-Knob: B1 PDL_5F9 x Fc-Knob
PDL_5F9 x Fc-Hole x CD40_1D5: EVQLVESGGGLVKPGGSLRLSCAASGFTFSDYGMAWVRQAPGKGLEWVAFITSLAYIIYYADSVKGRFTISRDNAKNSLYLQMNSLRAEDTAVYYCARNYGSSPYYFDYWGQGTLVTVSSGGGGSGGGGSGGGGSGGGGSDIQMTQSPSSLSASVGDRVTITCRASQDINKFLSWYQQKPGKAPKLLIHYTSSLQPGVPSRFSGSGSGTDFTLTISSLQPEDFATYYCLQYDNLYTFGQGTKLEIKEPKSSDKTHTCPPCPAPPAAAPSVFLFPPKPKDTLMISRTPEVTCVVVDVSHEDPEVKFNWYVDGVEVHNAKTKPREEQYNSTYRVVSVLTVLHQDWLNGKEYKCAVSNKALPAPIEKTISKAKGQPREPQVYTLPPSRDELTKNQVSLSCAVKGFYPSDIAVEWESNGQPENNYKTTPPVLDSDGSFFLVSKLTVDKSRWQQGNVFSCSVMHEALHNRFTQKSLSLSPGGGGSPSDIVMSQSPSSLAVSVGEKVTMSCKSSQSLLFSVNQKNYLAWYQQKPGQSPKLLIYWASTRESGVPDRFTGSGSGTDFTLTIGSVKAEDLAVYYCQHYYSYPWTFGGGTKLEIKGGGGSGGGGSGGGGSGGGGSQVQLQQSGAELMNPGASVRISCKATGYTFSTSWIEWIKQRPGHGLEWIGEILPGSGSTNYNEKFKGKATFTADTSSNTAYMQLSSLTFEDSAVYYCARGDDGSYVRWYFDVWGAGTTVTVSS
For B2, the binding result is recorded as “binds”.

Values taken from US20260217833A1 (APTEVO RESEARCH AND DEVELOPMENT, published 2026).
